Assay results from the nanobody polyreactivity screen of Harvey et al. (2022).

Experiment: yeast display, Sf9 membrane polyspecificity reagent, FACS + sequencing; frameworks hold sequencing errors
How it was run: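 Polyreactivity labels are assigned by the sorting gate from which each nanobody was recovered. The gates were low and high (top ~1%), set on anti-HA fluorescence for expression and streptavidin fluorescence for reagent binding. Before sorting, galactose-induced (36–48 hours) yeast display cells were stained for 1 hour at 4 °C with 10% biotinylated, detergent-solubilized Sf9 membrane reagent.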

Row | Sequence | polyreactivity (PSR sort gate)
1 | QVQLVESGGGLVQAGGSLRLSCAASGGTFYFYAMGWYRQAPGKERELVATITRGGSTYYADSVKGRFTISRDNAKNTVYLQMNSLKPEDTAVYYCAARQYSRRRSPVSTWYYYWGQGTQVTVSS | high polyreactivity
2 | QVQLVESGGGLVQAGGSLRLSCAASGRTSVWYTMGWYRQAPGKEREFVASITGSGTCYADSVKGRFTISRDNAKNTVYLQMNSLKPEDTAVYYCAAGGKYYTFGFRGGTYDYWGQGTQVTVSS | high polyreactivity
3 | QVQLVESGGGLVQAGGSLRLSCAASGSIFKQNNMGWYRQAPGKERELVAAISSGGSTYYADSVKGRFTISRDNAKNTVYLQMNSLKPEDTAVYYCAKYYDWDYYLPLEGDYWGQGTQVTVSS | low polyreactivity
4 | QVQLVESGGGLVQAGGSLRLSCAASGRIFFYNVMGWYRQAHGKERELVAAITTIGGSTYYADSVKGRFTISRDNAMNTVYLQMNSLKPEDTAVYYCAAGWVTNSDGMDYWGQGTQVTVSS | low polyreactivity
5 | QVLQVESGGGVVQAGGSLRLSCSASGSTIGNKTMGWYRQAPGKEREFVAAITESGGGTYADSVKGRFTISRDNAKNTVYLQMNSLKPEDNAVYYSAAVWYIWPFAFYYWGEGTQVTVSS | high polyreactivity
6 | QVQLVESEGGLVQAGGSLRLSFAASGSIFPYNAMGWYRQAPGKERELVAAISISGGSTYYADSVKGRFTISRDNAKNTVYLLMNSLKPEDTAVYYCAARQSLSSAFDYCGQGTQVTVSS | low polyreactivity
7 | QVQLVESGGGLVQAGGSLRLSCAASGRILPSNAMGWYRPAPGKERELVAGITSGGSTDYADSVKGRFTISRDNAKNTVYLQMNSLKPEDTAVYYCNKPFPYYPDGPNGYDYWGQGTQVTVSS | low polyreactivity
8 | QDQLVESGGGLVQAGGSLRISCGASGRIFDIYAMGWYRQAPGKERELVADITSGGSTYYADSVQGRFTISRVNAKNTVYLQMNSLKPEDTAVYYCAARLFADYWGQGTHVTVSS | low polyreactivity
9 | QVQLVESGGGLVQAGGSIRLSCAASGRTFPAYAMGWYRQAPGKERELVAAISYSGGRTRYADSVKGRFTISRDNAKYTVYLQMNSLKPEDTAVYYCNRVIPTQSLRDYYWGQGTQVTVSS | high polyreactivity
10 | QVQLVESGGVLVHAGGILRLSCAASGSTIVRYAMGWYRQAPGKERELVAAKSSRGGSTYYADSVKGRFTITRDNAKNTVYLQMNILKPEDTGVYYCSAAPPGTIAYRVGSWGQGTQVTVSS | high polyreactivity
11 | QVQLVESGGGLVQAGGSLRLSCAASGSIFKPYVMGWYRQAPGKERELVAAITSSGVSTYYADSVKGRFTISRDNAKNTVYLQMNSLKPEDTAVYYCAADQYLGRAWRRRGYYWGQGTQVTVSS | high polyreactivity
12 | QVQLVESGGGLVQAGGSLRLSCAASGRTFPGNAMGWYRQAPGKERELVAAISSRGGSTYYADSVKGRFTISRDNAKYTVYFQMNSLKPEDTALYYCARRYLPYGGYYYWGQGTQVTVSS | high polyreactivity
13 | QVQLVESGGGLVQAGGSLRLSCAASGYNFPYYAMGWYRQAPGKERELVAGITTDGSSTYYADSVKGRFTISRDNAKNTVYLQMNSLKPEDTAVYYCYGYPGYTWGWYDYWGQGTQVTVSS | low polyreactivity
14 | HVQLQESGGGLVQAGGSLRLSCAASGSIFQATYMGWYRQAPGKEREFVASITYGSITNYADSVKGRFTIGRDNAKETLYLQMNSLKPEDTAVYYCAVDRHYIPAFHYWGQGTQVTVSS | low polyreactivity
15 | QVQLVESGGGLVQAGGSLRLSCAASGLIFYRNAMGWYRQAPGKERELVAAISVSGGRTYYADSVKGRFTISRDNAKNTVYLQMNSLKPEDTAVYYCAAYGTTRMDYWGQGTQVTVSS | high polyreactivity
16 | QVQLVESGGGLVQAGGSLRLSCAASGMIFYTYVMGWYRQAPGKEREFVAGISTSGGRTDYADSVKGRFTISRDNAKNTVYLQMNSLKPEDTAVYYCNADYWQWYSYWYDYWGQGTQVTVSS | high polyreactivity
17 | QVKLQESGGSHVQAGGSLRLSCAASGFIFARNYIGWYRQAPCKERELVAGIGVRASTNYADSDKGRFTISRDNAKNSVYLQMNSLEPEDTAVYYCAVGDTVLGYHYYWGQGTQVTVSN | low polyreactivity
18 | QVQLVESGAGLVQAGGSLRLSCAASGNIFRFYAMGWYRQAPGKERELVAAISYNGGRTYYADSVKGRFTISRDNAKNTVYLQMNILKPEDTAVYYCNAAGRDDAYDYWGQGTQVTVAS | high polyreactivity
19 | QVQLVESGGGLVQAGGSLRLSCAASGSTFYFNAMGWYRQAPGKERELVATISDNDGSTNYADSVKGRFTISRDNAKNTVYLLMISLKPEDTGVYYCNADWYYYYEEDDYWGQGTQVTVSS | low polyreactivity
20 | QVQLVESGGGLVQAVGSLRLSCAASGRTFNLYAMGWYRQAPGKERELVAAITRRGGRTYYADSVKGRFTISRDNAKNTVYLQMNSLKPEDTAVYYCAARGYYGKFSGSGYWGQGTQVTVSS | high polyreactivity
21 | QVQLVESGGGLVQAGVSLRLSCAASGSIFQTYDMGWYRQAPGKERELVAAITGSGDSTYYADSVKGRFTISRDNAKNTVYLQMNSLKPEDTAVYYCNADGPSTPWVEYGYWGQGTQVTVSS | low polyreactivity

Row | Sequence | polyreactivity (PSR sort gate)
22 | QVQLVESGGGLVHAGGCLRLSFAASGFIFVVNPMGWYRPAPGKERELVAAINTSRGSTSYADSVKGRFTISRDNAKNTVYLQMNSVKPEDNAVYYCARDVWEKYRQSWGYVPLQGYDYCGQGTQVTVSS | low polyreactivity
23 | QVQLVESGGGLVQAGGSLRLSCAASGFILLYYAMGWYRQAPVKERELVATITWSDGSTYYADSVKGRFTISRDNAKNTVYLQMNSLKPEDTAVYYCASPYKRYFYKGGDYWGQGTQVTVSS | low polyreactivity
24 | QVQLVESGGGLVQAGGSLRLSCAASGSTFGYYAMGWYRQAPGKERELVAAIRWCGGSTYADSVKGRFTISRDNAKNTVYLQMNSLKPEDTEVYYCAQYRWYGSVLGGYWGQGTQVTVSS | high polyreactivity
25 | QDQLVESGGGLVQAGGSLRLSCAASGSIFDRNAMGWYRQAPGKERELVAAITSRGGRTYYADSVKGRFTISRDNAKNTVYLQMNSLKPEDTAVYYCNAVYSQSGYFYRFDYWGQGTQVTVSS | high polyreactivity
26 | QVQLVESGGGLVQAGGSLRLSCAASGSTFGRYVMGLYRQAPGQERELVAAISKNAGSTYYADSVKGRFTISRDNAKNTVYLQMNSLKPEDTAVYYCAADWRTKGYDSLGQGTQVTVSS | high polyreactivity
27 | QVQLVESGGGLVQAGGSLRLSCAASGSIFDYYVMGWYRQAPGKERELVAAISWSGASTYYADSVKGRFTISRDNAKNTVYLHMNSLKPEDTAVYYCAADYGVNTLIDYDYWGQGTQVTVSS | low polyreactivity
28 | QVQLVESGGGLVQAGGSLRLSCAASGSIFRVYAMGWYRQAPGKERELVASISRRGGSTYYADSVKGRFTISRDNAKNTVYLQMNSLKPEDTAVYYCAAEFVIGGHGYDYWGQGTQVTVSS | high polyreactivity
29 | QVQLVESAGGLVQAAGSLRLSCAASGFVFYSYAMGWYRQAPGKERELVAVISRSGGSTYYADSVKGRFTISRDNAKNTVYFQMNSLKPEDTAVYYCAAKYHGQERGAPPFYYWGQGTQVTVSS | high polyreactivity
30 | QVQLVESGGGLVQAGGRLRLSCAASGIIFRVYTMGWYRPEPGKERELVATISLGVARTYYADSVKGRFTISRDNAKYTVYLQMNSLKPEDTAVYYCAKRRGGQGNYWGQGTQVTVSS | high polyreactivity
31 | QVQLVESGGGLVQAGGSLRLSCAASGSTFRVNAMGWYRQAHGKEREFVAGISFGGGSTYYADSVKGRFTISRDNAKNTVYFQMNSLKPEDTADYYCNARGKGSGAVRYNYWGQGTLVTVSS | high polyreactivity
32 | QVQLVESGGGLVQAGGSLRLSCAASGRIFWTYAMGWYRQAPGKERELVAAINSSGGTTYYADSVKGRFTISRDNAKNTVYLQMNSLKPEDTAVYYCSVRGRYYYRRPQISYDYGGQGTQVTVSS | low polyreactivity
33 | QVQLVESGGGLVQAGGSLRLSCAASGIIFTINAMGWYRQAPGKERELVARISRSVGSTTYADSVKGRFTISRDNAKNTVYLQMNSLKPEDTAVYYCAAQPYGYSYHYHRPWGLDYWGQGTQVTVSS | low polyreactivity
34 | QVQLVESGGGLVQAGGSLRLSCAASGNIFGHYTRGWYRQAPAKERELVAAISRTGGRTYYADSVKGRFTISRDNAKNTVYLQMNSLKPEDTAVYDCDADKGGTYFNGDSWGQGTQVTVSS | high polyreactivity
35 | QVQLVESGGGLVQAGGSLRLSCAASGFTFPYYSMGWYRQAPGKERELVAAINRSGGTKYADSVKGRFTISRDNAKNTVYVQMNSLKPEDTAVYDCAADSFYSRSRYDYWGQGSQVTVSS | high polyreactivity
36 | QVQLVESGGGLVQAGGSLRLSCAASGSIFDRNAMGWYRQAPGKERELVASISYSGGTTYADSVKGRFTISRDNAKNTVYLQMNSLKPEDTAVYYCNAGGVYPRFTFLEQGYEMDYWGQGTQVTVSS | low polyreactivity
37 | QVKLVESGGGLVQAGGSLRLICAASGFTFRYYTMGWYRQAPGKARELVAAISRSSGSRTYYADSVKGRFTISRDNAKNTVYLQMNSLKPEDTAVYYCNADPAYQFDYWGQGTQVTVSS | high polyreactivity
38 | QVQLVESGGGLVQAGGSLRISCAASGNTVNDYTMGWYRQEPGKERELVAAIRSGGRTYYADSVKGRFTISRDNAKNTVYLQMNSLKPEDTAVYYCAALAVTYRYDYWGQGTQVTVSS | high polyreactivity
39 | QDQLVESGGGLVQAGGSLRLSCAASGFIFSPYAMGWYRQAPGKERELVAAINGGGRTYYADSVKGRFTISRDNAKNTVYLQMNILKPEDTAVYYCAVDPISQGHMDYWGQGTLVTVSS | low polyreactivity
40 | QVQLVESGGGLVQAGGSLRLSCAASGSTIYWYAMGWYRQAPGKERELVAAITDSGDDTYYADSVKGRFTISRDNAKKTVYLQMNSLKPVDTAVYYCAGEAWSVAPYEYWGQGTQVTVSS | low polyreactivity
41 | QVQLVESGGCLVQAGGSLRLSCAASGSTFRYYAMGWYRQAPGKESELVARITSRAGRTYYADSVKGRFTISRDIAKNTVYLQMNSLKPEDTAVYFCNTRDFSGYVHALSLYDYWGQGTQVTVSS | high polyreactivity
